The target of assay [1] is Mouse saposin A (mouse). Put plainly: crystal structure; SapA-PC preparation (100 mM citrate pH 4.0, 150 mM NaCl) mixed with acid ceramidase; sitting drops at 293 K, 23.25% PEG 3350, 0.1 M Bis-Tris pH 5.6; only SapA found in the crystal; 3.17 Å.
For assay [2], the target named is Mouse saposin A (mouse). The assay can be described thus: SEC-MALS; SapA after incubation with DDM-solubilised phosphatidylcholine (PC:SapA 30:1); Superdex 200 Increase 10/300 GL, 100 mM citrate pH 4.0, 150 mM NaCl, room temperature; protein conjugate analysis of three regions of a heterogeneous peak.

One substance from publication PMC7614494 can be followed below.

In general, stoichiometry N refers to the number of molecules, sites or subunits per partner or assembly. On to Mouse saposin A (natural protein), for which the stoichiometry N in assay [1] is 4; in assay [2], 3 to 4.
